This data set can be described thus: soluble on expression in E. coli; label from the status in PepcDB or PDB records.
Turning to “MVLIIVRTLLMRISIKMIPLAYLNHFRKEHMKSRIHWAALGLLAAFAAQAETVTIEHRLGKTTLEQKPQRVVVIGVGALDAIDSFGIEPVAVSKFDGTPDYLAKYKSDKYPSAGSLFEPDFETIYTQKPDLIVIGPRASKSYDELSKIAPTIVFAAEADQGYWESTQQQWRNLGKVFAIEPAVEAKIEQVDAQFKSIMQYNQQHKSDAMLVMSSGGNLTTFGANSRFSSVYKDFGFSETVPVSKESSHGDLISFEYIREHNPKTLLVVDRDKVVTKGETNIRQTFENDLVKATTAYKNGHIAYLDVNAWYIAISGVKATEQMVADMKASVGMQ”, the “soluble on expression in E. coli” value is reported as “not soluble”.

As to “MAMIKQILRLLFLLAMYELGKYVTEQVYIMMTANDDVEAPSDYVFRAEVSELEHHHHHH”, the “soluble on expression in E. coli” value is listed as “not soluble”. The same measure for “MSCYIYWDKIKRIASRLEGMNYHFDEMDTSGVMPLLDEIEEIAHDSTIDFESAKHILDDAEMNHALSLIRKFYVNLGMKLQMEKAQEVIESDSPWETLRSFYFYPRYLELLKNEAALGRFRRGERAVFIGGGPLPLTGILLSHVYGMRVNVVEIEPDIAELSRKVIEGLGVDGVNVITGDETVIDGLEFDVLMVAALAEPKRRVFRNIHRYVDTETRIIYRTYTGMRAILYAPVSDDDITGFRRAGVVLPSGKVNNTSVLVFKCPDKGELNSKLEGKPIPNPLLGLDSTRTGHHHHHH”: “soluble”; for “MEEEAAVEKPISLNQQRMNGVVAALKQSNARRVIDLGCGQGNLLKILLKDSFFEQITGVDVSYRSLEIAQERLDRLRLPRNQWERLQLIQGALTYQDKRFHGYDAATVIEVIEHLDLSRLGAFERVLFEFAQPKIVIVTTPNIEYNVKFANLPAGKLRHKDHRFEWTRSQFQNWANKITERFAYNVQFQPIGEADPEVGSPTQMAVFIHRGHHHHHH”: “soluble”; for “MGSDKIHHHHHHMSHHIEDLLNAWSAAPQDDWVLAVVTHVEGSAYRKVGAMMLIHGMGKSVGLVSGGCLEADLRRRAQKVIQTGQAASVCYDATDEADASYQLGCGGLVHLMLLPLCAANHYLHFQALKAALASQGRCHYQLMLTDESLSPGSLGAKVWTSQQALDDAKAGWQLSDFPRPGILQGQSMQGETVRGQSLQDESVQGESASLVVPLREHHRIAIFGGGLDAQPVCQIAQQLGWRVDVVDRRTSYAREYDFVGANIIKLPVSELPKNFWTRLDGAIVMQHNLELDAKALAAIHQHAKQLSYLALLGPGHRRDRVLALAGLEVASFGAYFSAPAGLALGGELPSSIALSILSECHGVLHGAKRVALKEVMA”: “not soluble”.

For the sequence “MGSDKIHHHHHHVLIKSIKLTNILSFGEAAETIELRPLNVVIGPNGSGKSNLIAAIELFRALPKDAPAFFRREGGIHDWLWKGGEIPPVATIESVFDEKGPLSGLRYALRFTVVGQHFEIIEERIEEEAAEGAQTPPPYHFKDGRGALRALLANEGEIKAWSFVIPSEIDPTQSILAQRKDPHQYPELTSLGAVLPTMRCYREWTMGPQSPPRQDQKTDLRNDYLDPYGAGNLALVLQRLGNKPALKKRFLEALRLLYEGIDDYGVTIEGGTSQIFFHEGGRFTIPASRLSDGTLRYLCLLAILLDPAPPPLLCIEEPELGLHPDILPTLADLLKEASERTQVIVTTHSDGLVDAMTDRPEAVLIAEKNENGTTLTRLDGETLKPWLAKYRLGELWTRGGIGGTRW”, the “soluble on expression in E. coli” value is “not soluble”. For the sequence “MKLERQKLLAKVAYLYYMEGKSQSEIANELGIYRTTISRMLAKAREEGLVRIEISDFNPEIFQLESYFKSKYHLKDIEIVSSRKDSDTSEIEKDLAHVAAAMIRKKIKENDKVGIAWGRTLSKVVEAMRPHPVSQVSFVPLAGGPSHINARYHVNTLVYEMSRRFQGSCTFINATLVQENANLAKGILTSKYFEGLMDNWEKLDVAIVGVGGKPKSNEQQWLDLLNQDDFQCLDEEAAVGEITCRFFNHSGDPVNQHLAKRTIGITLEQLQKVPNRIAVAHGNYKAAALLAVLKKGYINHLVTDFSTALNILRLDKDTFVDTIYQKS”, the “soluble on expression in E. coli” value is listed as “not soluble”.

As to “MSRDLPSLNALRAFEAAARLHSISLAAEELHVTHGAVSRQVRLLEDDLGVALFGKDGRGVKLTDSGVRLRDACGDAFERLRGVCAELRRQTAEAPFVLGVPGSLLARWFIPRLDQLNRALPDLRLQLSTSEGEFDPRRPGLDAMLWFAEPPWPADMQVFELAPERMGPVVSPRLAQETGLAQAPAARLLQEPLLHTASRPQAWPAWAASQGLAAEALRYGQGFEHLYYLLEAAVAGLGVAIAPEPLVRDDLAAGRLAAPWGFIETDARLALWVPARLHDPRAGRLAQWLREQLAG”, the “soluble on expression in E. coli” value is reported as “not soluble”. Turning to “MTYNVWNFGESNGRYSALTARGISKETCQKAGYWIAKVDGVMYQVADYRDQNGNIVSQKVRDKDKNFKTTGSHKSDALFGKHLWNGGKKIVVTEGEIDMLTVMELQDCKYPVVSLGHGASAAKKTCAANYEYFDQFEQIILMFDMDEAGRKAVEEAAQVLPAGKVRVAVLPCKDANECHLNGHDREIMEQVWNAGPWIPDGVVSALSLRERIREHLSSEESVGLLFSGCTGINDKTLGARGGEVIMVTSGSGMVMSTFVRQQALQWGTAMGKKVGLAMLEESVEETAEDLIGLHNRVRLRQSDSLKREIIENGKFDQWFDELFGNDTFHLYDSFAEAETDRLLAKLAYMRSGLGCDVIILDHISIVVSASGESDERKMIDNLMTKLKGFAKSTGVVLVVICHLKNPDKGKAHEEGRPVSITDLRGSGALRQLSDTIIALERNQQGDMPNLVLVRILKCRFTGDTGIAGYMEYNKETGWLEPSSYSGEEESHSESTDWSNDTDF”, the “soluble on expression in E. coli” value is “soluble”. For the sequence “MGSDKIHHHHHHMKSVSVRSCKTYNYEEVKLSIEKNLEDIGGIDKFVKKGSKVLIKPNLLMKKKPEEATTTHPMVVKVVCEKLLELNCDITIADSPGGPYNQSSLKSIYKASGIEEVANELGIKLNYDVSDVKIHSEKAHVLKYMDIIKPIVDSDYIINLCKLKTHIMATFTGGTKNLYGCIAGLKKAEIHYRFPTEELFCENVLLDICDYIKPTLTIMDGIVGMEGDGPSAGTTREIGVLLASQNPYAIDVVACKIISLLPNRVATIRGAIKRGYIQEDFSDIEILGEDIKDLIIKNYKIPNVSKDLRLFSVKLPKFLNEPISKLITPKPVVRFQDCIKCGKCKEACPASTIEIGTKGAIIDLSKCIRCYCCHELCPKKAIDVKRNFVFKYVK”, the “soluble on expression in E. coli” value is on record as “not soluble”. Regarding “MSKKPVALIILDGFALRDETYGNAVAQANKPNFDRYWNEYPHTTLKACGEAVGLPEGQMGNAEVGHLNIGAGRIVYQSLTRINIAIREGEFDRNETFLAAMNHVKQHGTSLHLFGLLSDGGVHSHIHHLYALLRLAAKEGVKRVYIHGFLDGRDVGPQTAPQYIKELQEKIKEYGVGEIATLSGRYYSMDRDKRWDRVEKAYRAMVYGEGPTYRDPLECIEDSYKHGIYDEFVLPSVIVREDGRPVATIQDNDAIIFYNFRPDRAIQISNTFTNEDFREFDRGPKHPKHLFFVCLTHFSETVAGYVAFKPTNLDNTIGEVLSQHGLRQLRIAETEKYPHVTFFMSGGREEEFPGEDRILINSPKVPTYDLKPEMSAYEVTDALLKEIEADKYDAIILNYANPDMVGHSGKLEPTIKAVEAVDECLGKVVDAILAKGGIAIITADHGNADEVLTPDGKPQTAHTTNPVPVIVTKKGIKLRDGGILGDLAPTMLDLLGLPQPKEMTGKSLIVK”, the “soluble on expression in E. coli” value was “soluble”. Turning to “MPVPDLFAEGLARGWKTYNGSRLDDDLELEADVVVVGTGAGGGTTAEILSAAGLKVLLVEEGPLKTSSDFKMQEADAYPELYQEGIGRMSKDGAITILQGRAVGGTTLINWTSSFRTPEPTLQHWAQVYGVKGHSAEDMAPWFEKMEQRLHVAPWALPPNANNDVIRLGCEKLGYHWKVIPRNVLGCWNLGYCGMGCPVNAKQSMLVTTIPATLDKGGELLYLARANRLLLDGDKVTGLECLGMDERCVAPNGRRIRVRARHYVLSGGGINTPAILLRSKAPDPSQRVGKRTFLHTVNFSAGLFDRVINPFYGAPQSIYSDHFQWDDGVTGRMSYKLEVPPLQPSLASVLLGGFGSDNALRMEQLPHTNMMLALLRDGFHPDSAEGSVGLRGDDTPVLDYRMTDYTWDGIRRAFHTMAEIQFAAGAREVRPVHSDARSAKNLQEARGIIDGLRLEIYRTRLGSAHVMGGCAMGEDPAVAVADSLGRHHHLRNLSIHDGSLFPTSIGANPQLSVYGLTAQLASALAERLARALEHHHHHH”, the “soluble on expression in E. coli” value was “not soluble”. Take “TLKEMKYKRNQEEIETYYEYTLKIEAINNEMRKFRHDYVNILTTLSEYIREDDMIGLRAYFNKNIVPMKDNLQMNAIKLNGIENLKVREIKGLITAKILRAQEMNIPISIEIPDEVSSINLNMIDLSRSIGIILDNAIEASTEIDDPIIRVAFIESENSVTFIVMNKCADDIPRIHELFQESFSTKGEGRGLGLSTLKEIADNADNVLLDTIIENGFFIQKVEIINN”: the “soluble on expression in E. coli” value is given as “not soluble”.

As for “MGSDKIHHHHHHMRNPIHKRLEKFESWKNITFMLCLCERMYPNFYLFCQMTEQMDKAKIYQNILNLVWEYLTVKNAKINFENQLEKLENIIPDVNNYEFFGVVPALDACEGLSELLHAIIAGETLEKAIKISQLSLQTVITLLETQQDKAFSEAELKQSEEIELELDVQWQIYRTLNAHEERDIRLILDLKNELRESRVSNIGIEIAQ”, the “soluble on expression in E. coli” value was “not soluble”.

Regarding “MSLSNAVRITALHTRLARIPLPRPLKTSIHEIADVCCLLVSLETDAGVTGEGYGFCFNADRLGAIAQFTQSLAPLVVGRDPHDVEALWTDFLRGCNFYGQSGVSILAYNPIDIACWDIVGKLAGRPLYKLFGAHRERVPVYASAGLWLSSSRDELRDEARQFLAQGFKAMKMRLGSPDWKEDIARVEVVRDAIGEQVTLMADANQGLDLTRALRLGRELARFDLAWFEEPVPTWDDDSAAEIVRRLPMPIASGETEYTRYGIRRMARERAAGVFMPDLQRMGGYTEMLKAVRYLAAHDLPVAPHIFTEHSLHIVAAAGNATWAEHMPWFEPLFHERMEIGADGCIAAPDRPGTGFTFDWQRIDPYLISPRTAGGSEGHHHHHH”, the “soluble on expression in E. coli” value was “soluble”. The same measure for “MEVEKEFITDEAKELLSKDKLIQQAYNEVKTSICSPIWPATSKTFTINNTEKNCNGVVPIKELCYTLLEDTYNWYREKPLDILKLEKKKGGPIDVYKEFIENSELKRVGMEFETGNISSAHRSMNKLLLGLKHGEIDLAIILMPIKQLAYYLTDRVTNFEELEPYFELTEGQPFIFIGFNAEAYNSNVPLIPKGSDGMSKRSIKKWKDKVENK”: “soluble”; for “MSTQYLNSNLKVFSLNSNKELAEQIAKHIGVGLGKCSVDRFSDGEVQINIEESIRGCDVFIIQSTSFPVNEHIMELLIMIDALKRASAKTINIVIPYYGYARQDRKARSREPITSKLVANLLETAGATRVITLDLHAPQIQGFFDIPIDHLMGVPILSDYFETKGLKDIVIVSPDHGGVTRARKMADRLKAPIAIIDKRRPRPNVSEVMNIIGNIEGKTAILIDDIIDTAGTITLAANALVENGASEVYACCTHPVLSGPAIERIQNSNIKELVVTNSIVLPEEKKIDKVHELSVAPLIGEAIIRVYEEESVSVLFN”: “not soluble”. Take “MNMTIFIVFVICLSCVSLSLGTETCPPLTTIKPPDDIQKSLFYPSNWNDDLPTPNFAAGQKCSFKVIGPVVPQIRTVHAKSPPLALNAMSSTNPIVVKSDTHVSFLPIPQNYNYLDPILRSVQVYDGPTIDSTHLGTLYQAIASNNSLVSSGKYLTFYSLSWYYSVRNIVILQDYSDIQNYASYQAFTCHNSCGVSLDASKGTAAVLLFNSLSFVNQLSMSDNNSTLSVYTNSISDDNKLSDYSYSNSQTNIPQKFVGNYTIFVLDKGQANLSLKTYTPNNAWWSYVFYGQRGFFASPNFGTSDSDQNLCDAVSINGKHPAKITYTVDRSAIVGPAVLTVSIGGNITIYDVTNLPGPDPISAIGMSIAVNYESNGVISTGAFVSFEFQKSATSNGILFTIVLTICMAIFF”: the “soluble on expression in E. coli” value is “not soluble”.

(Values after the DeepSol protein solubility set.)
